Measured values as given in article PMC3170999 (Molecular cancer therapeutics, 2011).
Residue numbers refer to the chain shown, from its start.

B1: scFv m708.2, yeast-displayed (scFv, V domains shown)
VH: QVQLQQPGAEVKKPGSSVKVSCKASGGTFSSYAISWVRQAPGQGLEWMGGIIPILGIANYAQKFQGRVTITADESTSTAYMELSSLRSEDTAVYYCARGPRGYSYNFDYWGQGTLVTVSS
VL: DIQMTQSPSSLSASVGDRVTIACRASQTISRYLNWYQQKPGKAPKLLIYAASSLQSGVSSRFSGSGSGTEFTLTISSLQPEDFATYFCQQTYSPPITFGQGTRLEIK
B2: scFv m708.2, purified soluble (scFv, V domains shown)
VH: B1 VH
VL: B1 VL
B3: scFv m708.5, purified soluble (scFv, V domains shown)
VH: B1 VH with P7L, K13M, I54T, A58V, N59K, E74K, R87G, R98G, Y109N
VL: B1 VL with A22V, L33V, T72A
B4: IgG1 m708.5 (antibody, V domains shown)
VH: B1 VH with P7L, K13M, I54T, A58V, N59K, E74K, R87G, R98G, Y109N
VL: B1 VL with A22V, L33V, T72A
B5: scFv m708.5, yeast-displayed (scFv, V domains shown)
VH: B1 VH with P7L, K13M, I54T, A58V, N59K, E74K, R87G, R98G, Y109N
VL: B1 VL with A22V, L33V, T72A

Key:
[1] = molecular target: Biotinylated human IGF1 (human, UniProt P05019, biotin); test: flow cytometry on cells
[2] = molecular target: Biotinylated human IGF2 (Homo sapiens, UniProt P01344, biotin); test: flow cytometry on cells
[3] = molecular target: T1, Recombinant human IGF1 (Homo sapiens, UniProt P05019); test: SPR
[4] = molecular target: T2, Human IGF2 (Homo sapiens, UniProt P01344); test: SPR
[5] = molecular target: T1, Recombinant human IGF1; test: SPR; remark: listed apart in the source
[6] = molecular target: T2, Human IGF2; test: SPR; remark: listed apart in the source

Row | Binder | Kd [1] [nM] | Kd [2] [nM] | Kd [3] [nM] | koff [3] [s⁻¹] | Kd [4] [nM] | koff [4] [s⁻¹] | fold change of the effective KD against the KD of scFv m708.5 [5] [fold] | fold change of the effective KD against the KD of scFv m708.5 [6] [fold]
1 | B1 | 3.9 | 1.1 |  |  |  |  |  | 
2 | B2 |  |  | 2.2 | 0.0024 | 1.8 | 0.0004 |  | 
3 | B3 |  |  | 0.2 | 0.00028 | 0.061 | 2.5e-06 |  | 
4 | B4 |  |  |  |  |  |  | 1000 | 60
5 | B5 | 0.1 | 0.041 |  |  |  |  |  | 
